In data set [1] the target is T1, Sfp (Bacillus subtilis, UniProt P39135).
T1 sequence (P39135 1-224): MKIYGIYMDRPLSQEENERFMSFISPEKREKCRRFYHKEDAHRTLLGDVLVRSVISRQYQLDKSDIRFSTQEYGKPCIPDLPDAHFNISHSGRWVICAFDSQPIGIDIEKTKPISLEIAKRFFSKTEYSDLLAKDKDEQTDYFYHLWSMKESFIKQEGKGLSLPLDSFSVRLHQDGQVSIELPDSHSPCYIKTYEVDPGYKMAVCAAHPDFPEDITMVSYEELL
Nature of the data set: tritium incorporation into apo MBP-PhsA-His6. It counts as biochemical. Particulars: acceptor apo MBP-PhsA-His6; labelled compound.

Data set [2] concerns the target T1, Sfp. Nature of the data set: fluorescent labelling of apo MBP-PhsA-His6, SDS-PAGE. It counts as biochemical. Particulars: acceptor apo MBP-PhsA-His6; labelled compound.
Substrate in data set [3]: CC(=O)N[C@@H](CCC(=O)O)C(=O)O
Nature of the data set: ATP-PPi exchange assay. The note with it: holo form (phosphopantetheinylated by Sfp), apparent constant. It counts as biochemical, Streptomyces viridochromogenes.

Substrate in data set [4]: CC(=O)N[C@@H](CC[PH](=O)O)C(=O)O
As to the kind of experiment: ATP-PPi exchange assay. It counts as biochemical, Streptomyces viridochromogenes. Particulars: holo form (phosphopantetheinylated by Sfp), apparent constant.

Consider `CC(=O)SCCNC(=O)CCNC(=O)[C@H](O)C(C)(C)COP(=O)(O)OP(=O)(O)OC[C@H]1O[C@@H](n2cnc3c(N)ncnc32)[C@H](O)[C@@H]1OP(=O)(O)O` [[^3H]acetyl-CoA], for which the “tritium incorporation into apo MBP-PhsA-His6” value in data set [1] is “[^3H]acetyl-CoA was utilized as a cosubstrate, resulting in a time-dependent increase”.

For `CC1=CC(C)=[N+]2C1=Cc1ccc(CCC(=O)NCCN3C(=O)CC(SCCNC(=O)CCNC(=O)[C@H](O)C(C)(C)COP(=O)(O)OP(=O)(O)OC[C@H]4O[C@@H](n5cnc6c(N)ncnc65)[C@H](O)[C@@H]4OP(=O)(O)O)C3=O)n1[B-]2(F)F` (some centres unmarked) [BODIPY-FL-N-(2-aminoethyl)maleimidyl-S-CoA], the “fluorescent labelling of apo MBP-PhsA-His6, SDS-PAGE” value in data set [2] is “CoA analogue BODIPY-FL-N-(2-aminoethyl)maleimidyl-S-CoA was employed to install a fluorescently labeled phosphopantetheine arm”.

B1: MBP−PhsA−His6 (Streptomyces viridochromogenes) (protein)
chain: MTAATPDTAPDRTGPSPGACPVVAEFARRAQAGPDRPAVVLPEETVDYRELAARADAVARALLDSRGEGSEPVPLMVLHPAWMLAACLGVLKAGKYYVPLNPHHPDARNRDLLARLGAALVVTDGAVPGRLPGRITVLSVGELDVRPGTPGEPGPAVAPDQWAYALYTSGSTGLPKGILQNRADMRQNIDRHAALGIGPEDRVTLINADGFVAAVSNPYMALLNGAALVPYSFQRDGVHDLIDRLDAAGTTVYYSFPSFLRQAAAVSEGRTTDRVRLAYLGGESVHSSDVLAARRLFPAATVAVGLNSTETGLTRLRLIPPGAEVPDPVPVGGPVPGVEVRVEASPGRPAAVGEAGRIVVRSAFLHAAQWTDQGPRPLTEAVPEADSGTACEPAPRDFRTGDRGRLDGTGQLVHLGRVDGMVKVRGYRVETVEVESAVSAVTGVAEAAVVPYETAEHATELAAYVVAKDPDLTDAALRRALSETLPTHLVPSSVLLVPRLPRTRNGKIDRKALPDPASGTSGTAVSRPAPAHTPAPAPGDGPDEARARVLGQVGEIWSDVLGAGPVLPGDDFFSLGGTSISALRVVSRIRKELGVPLRLAVIFETPSLEAVAESVLRELKGT
Turning to B1, in data set [3], the Michaelis constant (Km) was determined as 493 ± 82 µM, the kcat turned out to be 0.48 ± 0.025 s⁻¹ and the kcat/Km was found to be 973 ± 167 M⁻¹ s⁻¹. For the same molecule, in data set [4], the Km came out at 254 ± 44 µM, the kcat was 2.08 ± 0.108 s⁻¹ and the kcat/Km amounted to 8170 ± 1500 M⁻¹ s⁻¹.

The values above are taken from publication PMC2709985 (Biochemistry, 2009).
